This note sets out measurements from article PMC3817168.

The target of this assay is ChrB-His6 (Ochrobactrum tritici 5bvl1). The experiment in a line: cross-linking; 8 µg purified protein, 0.1% glutaraldehyde, 20 mM NaCl, 10 mM KCl, 2 mM DTT, 20 mM Hepes pH 7.5, 30°C, 2 to 60 min; read by 10% SDS-PAGE or anti-His immunoblot; also with chr promoter DNA and/or Cr(VI), without effect.

ChrB-His6 (natural protein) came in with a stoichiometry N of 2.

For orientation: stoichiometry N means a count of units in the complex or per binding partner.
